By Kd is commonly meant the equilibrium constant for the complex coming apart. Low readings indicate tighter binding, high ones weaker binding.

Like-named read-outs stand apart in the source and are kept apart here.

What all share (assay): SPR
(In general: Surface plasmon resonance follows binding to a sensor surface in real time, without labels.)

The target of test [1] is T1, FcgRIIb (human, UniProt P31994).
T1 chain: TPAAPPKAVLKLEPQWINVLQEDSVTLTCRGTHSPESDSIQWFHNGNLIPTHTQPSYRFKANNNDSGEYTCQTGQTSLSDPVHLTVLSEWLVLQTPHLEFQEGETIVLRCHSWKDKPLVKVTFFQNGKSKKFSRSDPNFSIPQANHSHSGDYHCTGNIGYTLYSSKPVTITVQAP

For test [2], the target named is T2, FcgRIIIa F (human, UniProt P08637).
The next test deals with T3, FcgRIIa R (human, UniProt P12318).
T3 chain: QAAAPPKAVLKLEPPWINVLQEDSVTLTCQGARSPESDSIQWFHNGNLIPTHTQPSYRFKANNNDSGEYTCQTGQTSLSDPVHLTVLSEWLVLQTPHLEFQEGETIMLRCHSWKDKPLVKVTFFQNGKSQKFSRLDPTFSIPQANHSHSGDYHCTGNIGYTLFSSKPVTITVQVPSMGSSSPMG

The target of test [3] is T2, FcgRIIIa F. The source holds these as a separate data set.
The target of a further test is T4, FcgRIIa H (human, UniProt P12318).
T4 chain: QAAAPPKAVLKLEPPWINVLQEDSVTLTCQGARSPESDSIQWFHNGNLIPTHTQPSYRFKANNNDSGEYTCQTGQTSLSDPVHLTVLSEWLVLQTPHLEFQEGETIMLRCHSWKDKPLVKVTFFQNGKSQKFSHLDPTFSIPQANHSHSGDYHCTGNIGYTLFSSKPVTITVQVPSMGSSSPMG

A further test addresses FcgRIIIa V (human, UniProt P08637).
Another test addresses T5, FcgRIa (human, UniProt P12314).
T5 chain: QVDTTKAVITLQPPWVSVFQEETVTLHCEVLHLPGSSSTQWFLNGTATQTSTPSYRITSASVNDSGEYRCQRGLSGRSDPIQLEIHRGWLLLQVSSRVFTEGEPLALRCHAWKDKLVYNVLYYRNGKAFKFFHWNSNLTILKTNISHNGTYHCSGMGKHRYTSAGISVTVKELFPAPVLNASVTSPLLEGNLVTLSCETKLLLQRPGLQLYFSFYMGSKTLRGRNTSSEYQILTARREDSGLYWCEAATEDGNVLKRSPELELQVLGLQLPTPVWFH

Test [4] addresses T2, FcgRIIIa F. This is another data set of the same source.
Test [5] addresses T2, FcgRIIIa F. This is another data set of the same source.
Test [6] addresses T1, FcgRIIb.
Test [7] concerns the target T2, FcgRIIIa F. The source holds these as a separate data set.

T2 sequence (P08637 17-208): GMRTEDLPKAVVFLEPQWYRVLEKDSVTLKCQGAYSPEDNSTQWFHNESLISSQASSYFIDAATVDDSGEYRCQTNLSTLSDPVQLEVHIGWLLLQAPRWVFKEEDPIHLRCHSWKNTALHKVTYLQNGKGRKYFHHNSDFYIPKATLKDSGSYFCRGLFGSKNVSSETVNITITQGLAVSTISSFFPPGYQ
FcgRIIIa V, sequence (P08637 17-208 F176V): as the sequence (P08637 17-208) above, with F160V counted along it

B1: H240-afucosyl_G1d/L73-k0 (antibody)
chain 1: not shown
chain 2: DIQMTQSPSSLSASVGDRVTITCRASQDIHKYIAWYQQKPGQAPRLLIQYTSTLQPGVPSRFSGSGSGTDYTFTISSLQPEDIATYYCLQYEQLRTFGGGTKVEIKRTVAAPSVFIFPPSDEQLKSGTASVVCLLNNFYPREAKVQWKVDNALQSGNSQESVTEQDSKDSTYSLSSTLTLSKADYEKHKVYACEVTHQGLSSPVTKSFNRGEC
Take B1: the Kd with FcgRIIb [1] came out at 2600 nM; with FcgRIIIa F [2], 79 nM; with FcgRIIa R, 490 nM; with FcgRIIIa F [3], 78 nM; in the test with FcgRIIa H, 780 nM; with FcgRIIIa V, 6.9 nM. In addition, binding with FcgRIa was put at a Kd of 0.43 nM.

B2: GpH7-TA7/GpH7-TA50/GpL16-k0 (antibody)
chain 1: QVQLVQSGAEVKKPGASVTVSCKASGYTFTDYEMHWIRQPPGEGLEWIGAIDPKTGDTAYSESFQDRVTLTADKSTSTAYMELSSLTSEDTAVYYCTRFYSYTYWGQGTLVTVSSASTKGPSVFPLAPSSKSTSGGTAALGCLVKDYFPEPVTVSWNSGALTSGVHTFPAVLQSSGLYSLSSVVTVPSSSLGTQTYICNVNHKPSNTKVDKKVEPKSCDKTHTCPPCPAPEYLWGPSVFLFPPKPKDTLMISRTPEVTCVVVDVSHEDPEVKFNWYVDGVEVHNAKTKPREEQYNATYRVVSVLTVLHQDWLNGKEYKCKVSNKALPAPIEKTISKAKGQPREPQVYTLPPSRKELTKNQVSLTCLVKGFYPSDIAVEWESNGQPENNYKTTPPVLDSDGSFFLYSKLTVDKSRWQQGNVFSCSVMHEALHNRYTQKSLSLSP
chain 2: QVQLVQSGAEVKKPGASVTVSCKASGYTFTDYEMHWIRQPPGEGLEWIGAIDPKTGDTAYSESFQDRVTLTADKSTSTAYMELSSLTSEDTAVYYCTRFYSYTYWGQGTLVTVSSASTKGPSVFPLAPSSKSTSGGTAALGCLVKDYFPEPVTVSWNSGALTSGVHTFPAVLQSSGLYSLSSVVTVPSSSLGTQTYICNVNHKPSNTKVDKKVEPKSCDKTHTCPPCPAPELLGGPDVFLFPPKPKDTLMISRTPEVTCVVVDVSHEDPEVKFNWYVDGVEVHNAKTKPREEQYNSTYRVVSVLTVLHQDWLNGKEYKCKVSNKALPLPEEGTISKAKGQPREPQVYTLPPSRDELTKNQVSLTCLVKGFYPSDIAVEWESNGQPENNYKTTPPVLDSDGSFFLYSKLTVDKSRWQQGNVFSCSVMHEALHNHYTQESLSLSP
chain 3: DIVMTQSPLSLPVTPGEPASISCQASESLVHSNRNTYLHWYLQKPGQSPQLLIYKVSNRFSGVPDRFSGSGSGTDFTLKISRVEAEDVGVYYCSQNTHVPPTFGQGTKVEIERTVAAPSVFIFPPSDEQLKSGTASVVCLLNNFYPREAKVQWKVDNALQSGNSQESVTEQDSKDSTYSLSSTLTLSKADYEKHKVYACEVTHQGLSSPVTKSFNRGEC
B2 had a Kd with FcgRIIIa F [4] of 3.4 nM.

B3: GpH7-TA22/GpH7-B78/GpL16-k0 (antibody)
chain 1: QVQLVQSGAEVKKPGASVTVSCKASGYTFTDYEMHWIRQPPGEGLEWIGAIDPKTGDTAYSESFQDRVTLTADKSTSTAYMELSSLTSEDTAVYYCTRFYSYTYWGQGTLVTVSSASTKGPSVFPLAPSSKSTSGGTAALGCLVKDYFPEPVTVSWNSGALTSGVHTFPAVLQSSGLYSLSSVVTVPSSSLGTQTYICNVNHKPSNTKVDKKVEPKSCDKTHTCPPCPAPEYLWGPDVFLFPPKPKDTLMISRTPEVTCVVVDVSHEDPEVKFNWYVDGVEVHNAKTKPREEQYNATYRVVSVLTVLHQDWLNGKEYKCKVSNKALPAPIEKTISKAKGQPREPQVYTLPPSRKELTKNQVSLTCLVKGFYPSDIAVEWESNGQPENNYKTTPPVLDSDGSFFLYSKLTVDKSRWQQGNVFSCSVMHEALHNRYTQKSLSLSP
chain 2: QVQLVQSGAEVKKPGASVTVSCKASGYTFTDYEMHWIRQPPGEGLEWIGAIDPKTGDTAYSESFQDRVTLTADKSTSTAYMELSSLTSEDTAVYYCTRFYSYTYWGQGTLVTVSSASTKGPSVFPLAPSSKSTSGGTAALGCLVKDYFPEPVTVSWNSGALTSGVHTFPAVLQSSGLYSLSSVVTVPSSSLGTQTYICNVNHKPSNTKVDKKVEPKSCDKTHTCPPCPAPELLGGPDVFLFPPKPKDTLMISRTPEVTCVVVDVSHEDPEVKFNWYVDGVEVHNAKTKPREEQYNSTYRVVSVLTVLHQDWLNGKEYKCKVSNKALPLPEEKTISKAKGQPREPQVYTLPPSRDELTKNQVSLTCLVKGFYPSDIAVEWESNGQPENNYKTTPPVLDSDGSFFLYSKLTVDKSRWQQGNVFSCSVMHEALHNHYTQESLSLSP
chain 3: DIVMTQSPLSLPVTPGEPASISCQASESLVHSNRNTYLHWYLQKPGQSPQLLIYKVSNRFSGVPDRFSGSGSGTDFTLKISRVEAEDVGVYYCSQNTHVPPTFGQGTKVEIERTVAAPSVFIFPPSDEQLKSGTASVVCLLNNFYPREAKVQWKVDNALQSGNSQESVTEQDSKDSTYSLSSTLTLSKADYEKHKVYACEVTHQGLSSPVTKSFNRGEC
In the test with FcgRIIIa F [5], B3 had a Kd of 1.3 nM.

B4: GpH7-TA40/GpH7-B78/GpL16-k0 (antibody)
chain 1: QVQLVQSGAEVKKPGASVTVSCKASGYTFTDYEMHWIRQPPGEGLEWIGAIDPKTGDTAYSESFQDRVTLTADKSTSTAYMELSSLTSEDTAVYYCTRFYSYTYWGQGTLVTVSSASTKGPSVFPLAPSSKSTSGGTAALGCLVKDYFPEPVTVSWNSGALTSGVHTFPAVLQSSGLYSLSSVVTVPSSSLGTQTYICNVNHKPSNTKVDKKVEPKSCDKTHTCPPCPAPEYLWGPSVFLFPPKPKDTLMISRTPEVTCVVVDVSHEDPEVKFNWYVDGVEVHNAKTKPREEQYNATYRVVSVLTVLHQDWLNGKEYKCKVSNKALPAPIEGTISKAKGQPREPQVYTLPPSRKELTKNQVSLTCLVKGFYPSDIAVEWESNGQPENNYKTTPPVLDSDGSFFLYSKLTVDKSRWQQGNVFSCSVMHEALHNRYTQKSLSLSP
chain 2: QVQLVQSGAEVKKPGASVTVSCKASGYTFTDYEMHWIRQPPGEGLEWIGAIDPKTGDTAYSESFQDRVTLTADKSTSTAYMELSSLTSEDTAVYYCTRFYSYTYWGQGTLVTVSSASTKGPSVFPLAPSSKSTSGGTAALGCLVKDYFPEPVTVSWNSGALTSGVHTFPAVLQSSGLYSLSSVVTVPSSSLGTQTYICNVNHKPSNTKVDKKVEPKSCDKTHTCPPCPAPELLGGPDVFLFPPKPKDTLMISRTPEVTCVVVDVSHEDPEVKFNWYVDGVEVHNAKTKPREEQYNSTYRVVSVLTVLHQDWLNGKEYKCKVSNKALPLPEEKTISKAKGQPREPQVYTLPPSRDELTKNQVSLTCLVKGFYPSDIAVEWESNGQPENNYKTTPPVLDSDGSFFLYSKLTVDKSRWQQGNVFSCSVMHEALHNHYTQESLSLSP
chain 3: DIVMTQSPLSLPVTPGEPASISCQASESLVHSNRNTYLHWYLQKPGQSPQLLIYKVSNRFSGVPDRFSGSGSGTDFTLKISRVEAEDVGVYYCSQNTHVPPTFGQGTKVEIERTVAAPSVFIFPPSDEQLKSGTASVVCLLNNFYPREAKVQWKVDNALQSGNSQESVTEQDSKDSTYSLSSTLTLSKADYEKHKVYACEVTHQGLSSPVTKSFNRGEC
B4 had a Kd with FcgRIIIa F [4] of 7.5 nM.

B5: GpH7-TA7/GpH7-B78/GpL16-k0 (antibody)
chain 1: QVQLVQSGAEVKKPGASVTVSCKASGYTFTDYEMHWIRQPPGEGLEWIGAIDPKTGDTAYSESFQDRVTLTADKSTSTAYMELSSLTSEDTAVYYCTRFYSYTYWGQGTLVTVSSASTKGPSVFPLAPSSKSTSGGTAALGCLVKDYFPEPVTVSWNSGALTSGVHTFPAVLQSSGLYSLSSVVTVPSSSLGTQTYICNVNHKPSNTKVDKKVEPKSCDKTHTCPPCPAPEYLWGPSVFLFPPKPKDTLMISRTPEVTCVVVDVSHEDPEVKFNWYVDGVEVHNAKTKPREEQYNATYRVVSVLTVLHQDWLNGKEYKCKVSNKALPAPIEKTISKAKGQPREPQVYTLPPSRKELTKNQVSLTCLVKGFYPSDIAVEWESNGQPENNYKTTPPVLDSDGSFFLYSKLTVDKSRWQQGNVFSCSVMHEALHNRYTQKSLSLSP
chain 2: QVQLVQSGAEVKKPGASVTVSCKASGYTFTDYEMHWIRQPPGEGLEWIGAIDPKTGDTAYSESFQDRVTLTADKSTSTAYMELSSLTSEDTAVYYCTRFYSYTYWGQGTLVTVSSASTKGPSVFPLAPSSKSTSGGTAALGCLVKDYFPEPVTVSWNSGALTSGVHTFPAVLQSSGLYSLSSVVTVPSSSLGTQTYICNVNHKPSNTKVDKKVEPKSCDKTHTCPPCPAPELLGGPDVFLFPPKPKDTLMISRTPEVTCVVVDVSHEDPEVKFNWYVDGVEVHNAKTKPREEQYNSTYRVVSVLTVLHQDWLNGKEYKCKVSNKALPLPEEKTISKAKGQPREPQVYTLPPSRDELTKNQVSLTCLVKGFYPSDIAVEWESNGQPENNYKTTPPVLDSDGSFFLYSKLTVDKSRWQQGNVFSCSVMHEALHNHYTQESLSLSP
chain 3: DIVMTQSPLSLPVTPGEPASISCQASESLVHSNRNTYLHWYLQKPGQSPQLLIYKVSNRFSGVPDRFSGSGSGTDFTLKISRVEAEDVGVYYCSQNTHVPPTFGQGTKVEIERTVAAPSVFIFPPSDEQLKSGTASVVCLLNNFYPREAKVQWKVDNALQSGNSQESVTEQDSKDSTYSLSSTLTLSKADYEKHKVYACEVTHQGLSSPVTKSFNRGEC
For the molecule B5, the figures for the Kd with FcgRIIIa F [5], with FcgRIIb [6] and with FcgRIIIa F [7] were 4.1 nM, 1100 nM and 4.7 nM, respectively.

(Values after US10766960 (dated 2020).)
